Experimental data taken from the supplement of paper PMC9112550, “Optimization of the antimicrobial peptide Bac7 by deep mutational scanning” (BMC Biology, 2022).

What follows are sequences tested on Escherichia coli TOP10 (assay: shrunken log2 fold change of peptide-encoding DNA abundance (4.5 h post-induction vs induction); higher = less antimicrobial activity (less host growth inhibition)). Conditions: time post-induction: 4.5 h; library: site-saturation at positions 5, 18, 19, 20.
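Further: peptides expressed intracellularly from a pBAD plasmid library in pooled LB shake-flask culture, induced with 0.3% L-arabinose, DNA abundance read by NGS, three biological replicates, DESeq2 with apeglm shrinkage.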

Row | Sequence | shrunken log2 fold change
1 | RRIRERPPRLPRPRPRPGITPRP | -0.648
2 | RRIRERPPRLPRPRPRPGIYPRP | -0.91
3 | RRIRERPPRLPRPRPRPGKHPRP | -0.324
4 | RRIRERPPRLPRPRPRPGKVPRP | 0.206
5 | RRIRERPPRLPRPRPRPGLHPRP | -0.124
6 | RRIRERPPRLPRPRPRPGLKPRP | 0.131
7 | RRIRERPPRLPRPRPRPGLWPRP | 0.168
8 | RRIRERPPRLPRPRPRPGMDPRP | -0.696
9 | RRIRERPPRLPRPRPRPGMGPRP | -0.0461
10 | RRIRERPPRLPRPRPRPGNAPRP | -0.0685
11 | RRIRERPPRLPRPRPRPGNEPRP | -0.0966
12 | RRIRERPPRLPRPRPRPGRMPRP | 0.0231
13 | RRIRERPPRLPRPRPRPGRWPRP | 0.796
14 | RRIRERPPRLPRPRPRPGTRPRP | -0.0692
15 | RRIRERPPRLPRPRPRPGVAPRP | 0.146
16 | RRIRERPPRLPRPRPRPGVFPRP | 0.248
17 | RRIRERPPRLPRPRPRPGVGPRP | 0.428
18 | RRIRERPPRLPRPRPRPGVQPRP | -0.351
19 | RRIRERPPRLPRPRPRPHAPPRP | -0.0944
20 | RRIRERPPRLPRPRPRPHDGPRP | -0.532
21 | RRIRERPPRLPRPRPRPHGYPRP | 0.0062
22 | RRIRERPPRLPRPRPRPHHHPRP | -0.58
23 | RRIRERPPRLPRPRPRPHHSPRP | -0.603
24 | RRIRERPPRLPRPRPRPHIVPRP | -0.0314
25 | RRIRERPPRLPRPRPRPHIWPRP | 0.00885

Row | Sequence | shrunken log2 fold change
26 | RRIRERPPRLPRPRPRPHLCPRP | -0.101
27 | RRIRERPPRLPRPRPRPHMMPRP | -1.14
28 | RRIRERPPRLPRPRPRPHNMPRP | -0.51
29 | RRIRERPPRLPRPRPRPHNNPRP | 0.486
30 | RRIRERPPRLPRPRPRPHPNPRP | -0.0522
31 | RRIRERPPRLPRPRPRPHPWPRP | -0.392
32 | RRIRERPPRLPRPRPRPHQAPRP | 0.0779
33 | RRIRERPPRLPRPRPRPHRAPRP | -0.0349
34 | RRIRERPPRLPRPRPRPHRIPRP | -0.229
35 | RRIRERPPRLPRPRPRPHRQPRP | -0.0179
36 | RRIRERPPRLPRPRPRPHSPPRP | -0.372
37 | RRIRERPPRLPRPRPRPHSWPRP | -0.183
38 | RRIRERPPRLPRPRPRPHTCPRP | -0.0792
39 | RRIRERPPRLPRPRPRPHTHPRP | -1.01
40 | RRIRERPPRLPRPRPRPHVCPRP | -0.0153
41 | RRIRERPPRLPRPRPRPHVHPRP | -0.315
42 | RRIRERPPRLPRPRPRPHVQPRP | -0.434
43 | RRIRERPPRLPRPRPRPHVYPRP | -0.764
44 | RRIRERPPRLPRPRPRPHWWPRP | 0.193
45 | RRIRERPPRLPRPRPRPHYMPRP | -0.0919
46 | RRIRERPPRLPRPRPRPIANPRP | 0.158
47 | RRIRERPPRLPRPRPRPICKPRP | -0.215
48 | RRIRERPPRLPRPRPRPICYPRP | -0.4
49 | RRIRERPPRLPRPRPRPIDLPRP | -0.219
50 | RRIRERPPRLPRPRPRPIEGPRP | 0.0039

Row | Sequence | shrunken log2 fold change
51 | RRIRERPPRLPRPRPRPIERPRP | 0.00274
52 | RRIRERPPRLPRPRPRPIGSPRP | -0.587
53 | RRIRERPPRLPRPRPRPIGVPRP | 0.0489
54 | RRIRERPPRLPRPRPRPIHLPRP | -0.0986
55 | RRIRERPPRLPRPRPRPIHNPRP | -0.659
56 | RRIRERPPRLPRPRPRPIMAPRP | -1.15
57 | RRIRERPPRLPRPRPRPIMMPRP | -0.689
58 | RRIRERPPRLPRPRPRPINEPRP | -0.281
59 | RRIRERPPRLPRPRPRPIPCPRP | -0.341
60 | RRIRERPPRLPRPRPRPIPYPRP | -0.00829
61 | RRIRERPPRLPRPRPRPIRTPRP | -0.577
62 | RRIRERPPRLPRPRPRPISEPRP | -0.0562
63 | RRIRERPPRLPRPRPRPIVSPRP | 0.0707
64 | RRIRERPPRLPRPRPRPIVVPRP | -0.29
65 | RRIRERPPRLPRPRPRPIYKPRP | -0.305
66 | RRIRERPPRLPRPRPRPKAGPRP | 0.174
67 | RRIRERPPRLPRPRPRPKALPRP | -0.113
68 | RRIRERPPRLPRPRPRPKAYPRP | -0.00666
69 | RRIRERPPRLPRPRPRPKDWPRP | 0.111
70 | RRIRERPPRLPRPRPRPKFGPRP | 0.37
71 | RRIRERPPRLPRPRPRPKFLPRP | -0.219
72 | RRIRERPPRLPRPRPRPKHIPRP | -0.766
73 | RRIRERPPRLPRPRPRPKHRPRP | -0.457
74 | RRIRERPPRLPRPRPRPKHYPRP | -0.373
75 | RRIRERPPRLPRPRPRPKLAPRP | 0.00329
